{"source": "the supplement of paper PMC12636428", "system": "Saccharomyces cerevisiae", "experiment": "transcriptional activation domain activity (GFP:mCherry ratio, weighted mean of sorted bins, harmonized to initial dataset scale) (arbitrary fluorescence ratio units); higher = stronger transcriptional activation", "conditions": "beta-estradiol 1 µM; induction time 4 h", "in_short": "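Yeast diploids with a GFP reporter received barcoded protein tiles, fused to an estradiol-inducible synthetic transcription factor, at the URA3 locus. Cultures were diluted 1:5 into SC holding 1 uM beta-estradiol, incubated 4 hours at 30 °C, sorted into 8 bins on GFP:mCherry ratio, and sequenced for barcodes, with tiles under 50 reads discarded. Activation activity values come from the read-weighted mean of bin median fluorescence, averaged across barcodes and linearly placed on the initial dataset scale.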"}
{"sequence": "VFLFLLTYFTIDIGLTNLPPLVIITVYLPHPPPLPDILLYWVLFLCCAVWGAV", "values": [{"measurement": "transcriptional activation domain activity", "result": 39800}]}
{"sequence": "RLVVLYGASRIVVAIKRAHGGFDYTRRLSDEEPMVRIMTVVVSYSRLILISVY", "values": [{"measurement": "transcriptional activation domain activity", "result": 53300}]}
{"sequence": "KINQIFGYRSGLGFSIITLDWNQIAYIGSPYVAGSFRWAEANVMIGFMFFYWF", "values": [{"measurement": "transcriptional activation domain activity", "result": 70300}]}
{"sequence": "GHLLVVSISIIIKAMHGCLYCPIFMYVTTYGYYLWIASFIWRAYYLRFQLTLH", "values": [{"measurement": "transcriptional activation domain activity", "result": 43600}]}
{"sequence": "GDEDEEDTAELKEEALKGLIAVLVCASVLSIVRALMHSQLDLSILELLVDNMT", "values": [{"measurement": "transcriptional activation domain activity", "result": 53600}]}
{"sequence": "IPHGKVGDIFLLFEFSYPIISTIIILFYYYYFYYLLSLHILYFFYYSRCWLLV", "values": [{"measurement": "transcriptional activation domain activity", "result": 42300}]}
{"sequence": "MPKLNLYKIFLSILCSVVILVVWFPNLESILLLRVLVFHLVKYIGLCLLFFLC", "values": [{"measurement": "transcriptional activation domain activity", "result": 56000}]}
{"sequence": "LEVTQRGITPANTDYNSNPIDKCLVSDSFNESTTNLLRSLLHCLRILALTYHA", "values": [{"measurement": "transcriptional activation domain activity", "result": 36600}]}
{"sequence": "MSPLDQVAEDDLSKRRKPHTKSRHGCIDCRRRRVKCGEEKPCCRTCVRRGVRC", "values": [{"measurement": "transcriptional activation domain activity", "result": 44400}]}
{"sequence": "MSFYFNFYFPICLFFIFIFIVYFLFFIFYLFYFVVYFFLFLLAFIFVFFSVVY", "values": [{"measurement": "transcriptional activation domain activity", "result": 41700}]}
{"sequence": "EESAEEKQEEEDSADAKKQKTNGDAEEIEEAGENDEEKAEESTSKKKGRPAKN", "values": [{"measurement": "transcriptional activation domain activity", "result": 25100}]}
{"sequence": "PPCLKLAGWLAFVVGSFCQSTNLVVIQISQNNWDCFSIWRTLILLVIFFSLPA", "values": [{"measurement": "transcriptional activation domain activity", "result": 58500}]}
{"sequence": "LFTSLLTSPFLFSLPLLSISASSFLIPPSPFHSLFLPLSLPFPLLYPFPSLFF", "values": [{"measurement": "transcriptional activation domain activity", "result": 49800}]}
{"sequence": "MVGLVGFWVLFLFFLCPFLFSCPSPSPPLRPSLYIFQISYGSFFSCFSFLFFS", "values": [{"measurement": "transcriptional activation domain activity", "result": 68700}]}
{"sequence": "TKTVKDTTPATNHMDDDIAMFDSLATTQPIDIAASNQQNGEIAQLWDFNVDQF", "values": [{"measurement": "transcriptional activation domain activity", "result": 77600}]}
{"sequence": "MGNMGTCSFFFFFCWSSFFLCYFCVFPCVLSFQVEGLEAIFLPFTFFPFWFSL", "values": [{"measurement": "transcriptional activation domain activity", "result": 57300}]}
{"sequence": "VKPIPPRPSTGLRYRVETLIGITGYRMAKFRPSWSEVVLACLNVLWRPQFFFV", "values": [{"measurement": "transcriptional activation domain activity", "result": 55000}]}
{"sequence": "ASTETPLPVPKRRGRPPKNNNAAGIVVFDGGEEAPAVKKRGRPKKVTEPVAST", "values": [{"measurement": "transcriptional activation domain activity", "result": 23100}]}
{"sequence": "SSPNTGGGLFGSGGTTSAFGANTTSGFGSTSNTGAFGAKTGAFGATTSAGGGL", "values": [{"measurement": "transcriptional activation domain activity", "result": 35800}]}
{"sequence": "LQRNILWGMLIFVLAQGLSSTIVVAGFLCTPLSQVWTTPTAIGGPTCINILTF", "values": [{"measurement": "transcriptional activation domain activity", "result": 61900}]}
{"sequence": "MQFSLLFFFCLLFPPLLLFLCSFFFSFLFLEIFGFVNCLGFRRSHFQRQALLV", "values": [{"measurement": "transcriptional activation domain activity", "result": 54500}]}
{"sequence": "KLIKHNKNVRTWWKKDDQFWVPRGHIHVYFRTPIIGITVRAQLTASLFINLVH", "values": [{"measurement": "transcriptional activation domain activity", "result": 47300}]}
{"sequence": "MTYTFDLFSSFLSIVYMPHMATLYFLFFFLLLQCGYFIVLCFFFFHCVLCCFS", "values": [{"measurement": "transcriptional activation domain activity", "result": 67000}]}
{"sequence": "PDVLRKGAKFFCDETVLVKLQIVTLAAKLLVLSPNNLTLILLTKYVFGLARYD", "values": [{"measurement": "transcriptional activation domain activity", "result": 63000}]}
{"sequence": "LSSSVPIEAETFSSFRPDMNMTMNMNLHNASTSSFNNEAFWKPLDSAIDHHSG", "values": [{"measurement": "transcriptional activation domain activity", "result": 53500}]}
{"sequence": "PEKLFGLMHAAISNFPEWETKVGSWFLLGIWHPRFFKAAKEILPYCRRSCISF", "values": [{"measurement": "transcriptional activation domain activity", "result": 64500}]}
{"sequence": "MKVNRPFACSHEGCEKAFARKGELTKHERLHSGERPFACSHCEKAFGRSDARK", "values": [{"measurement": "transcriptional activation domain activity", "result": 16000}]}
{"sequence": "VPVNPLALSPETGGPKKLPVARVLVDDEEDEEAKKLSTKPRLVIVGGGWGAVG", "values": [{"measurement": "transcriptional activation domain activity", "result": 41900}]}
{"sequence": "MSLFLHSIIGGWLLHLFSLLCFLLFCFSAFCFSTTLFVTRRSGFVVGLWSLCL", "values": [{"measurement": "transcriptional activation domain activity", "result": 52000}]}
{"sequence": "NSSVYETVTRNLHDDLLGGSLNLKVILEMLLAHVIVNPSLVLEPAASLLRRNG", "values": [{"measurement": "transcriptional activation domain activity", "result": 58200}]}
{"sequence": "HVNVPTQFLSMVCPMAESIVEMVNGRMNLVGTTNYWRMIILLRPYVFQCGAAI", "values": [{"measurement": "transcriptional activation domain activity", "result": 44200}]}
{"sequence": "GSIDITRLGLSFTIIGDLWRQVWWAMLGRDEFASLRKNVSYSRQSLQNLLVTM", "values": [{"measurement": "transcriptional activation domain activity", "result": 61800}]}
{"sequence": "APDQPLTTQGKPRTRVYVACIQCRSRKIRCDGAKPVCHNCSHRASSAVGGVLE", "values": [{"measurement": "transcriptional activation domain activity", "result": 18000}]}
{"sequence": "TEAPPAPAPEGGDDEEDGEGDEGGEAAAGGKKKKKKKKPAEKKVPEAPAPKKG", "values": [{"measurement": "transcriptional activation domain activity", "result": 15400}]}
{"sequence": "KKKSSGRKSGSKGVGRLGSGSEETDEDESSRGSGSEAGRSSKDKKGKSRSNVE", "values": [{"measurement": "transcriptional activation domain activity", "result": 39900}]}
{"sequence": "MMNKTPGFLSLIPPFVIDLILLRCCLDPNISLNVTYRTLYFLMWFFQSVYLAV", "values": [{"measurement": "transcriptional activation domain activity", "result": 53200}]}
{"sequence": "NLVRCYYYYGYFGLQSCMVHVFLWFMWWIFLLSSRPLQSTPLSIIWRIILYQA", "values": [{"measurement": "transcriptional activation domain activity", "result": 29700}]}
{"sequence": "MFVLYTSGWESLHFFFPSPLVSFVLCWVLTRSLYRFLEVWVAYSVCLLLFLHV", "values": [{"measurement": "transcriptional activation domain activity", "result": 38600}]}
{"sequence": "VTHHYGNRVGVRWLTNGIKCYYVPFAIIHRNAIFPTVWSLFPILRNILIRERI", "values": [{"measurement": "transcriptional activation domain activity", "result": 63400}]}
{"sequence": "YLFYRLGLNIREIQLRSRGLILLQSLSVLGWSLLASSFSGLYFIGYPCFIHWW", "values": [{"measurement": "transcriptional activation domain activity", "result": 42700}]}
{"sequence": "GQGPLRSSYSMAYDSPVDRAMNTPLQQQEGLKAELPHDFLFQHGTDDTMYNLT", "values": [{"measurement": "transcriptional activation domain activity", "result": 36100}]}
{"sequence": "NKEKMAAFGSFVTEDQEKMEVSFNIFNEITIQDLNFLQFSSIPKLWENKTLEP", "values": [{"measurement": "transcriptional activation domain activity", "result": 79600}]}
